Biological target: mS105 (Chlamydomonas reinhardtii (endogenous in strain CC-4351))
Test: cryo-EM structure

mS105 (natural protein)
stoichiometry N: 3

Source: article doi:10.1101/2021.05.21.445086
